# Experimental data taken from US10857209B2, “Lysosomal acid lipase and PPAR gamma ligands as immune therapies for cancer treatment” (Indiana University Research and Technology Corporation, priority 2016, dated 2020).
# T1: PPARγ (Mus musculus, UniProt P37238)
# T1 construct: host or cells: lal-/- mice (lung)
# T1 sequence (P37238 1-505): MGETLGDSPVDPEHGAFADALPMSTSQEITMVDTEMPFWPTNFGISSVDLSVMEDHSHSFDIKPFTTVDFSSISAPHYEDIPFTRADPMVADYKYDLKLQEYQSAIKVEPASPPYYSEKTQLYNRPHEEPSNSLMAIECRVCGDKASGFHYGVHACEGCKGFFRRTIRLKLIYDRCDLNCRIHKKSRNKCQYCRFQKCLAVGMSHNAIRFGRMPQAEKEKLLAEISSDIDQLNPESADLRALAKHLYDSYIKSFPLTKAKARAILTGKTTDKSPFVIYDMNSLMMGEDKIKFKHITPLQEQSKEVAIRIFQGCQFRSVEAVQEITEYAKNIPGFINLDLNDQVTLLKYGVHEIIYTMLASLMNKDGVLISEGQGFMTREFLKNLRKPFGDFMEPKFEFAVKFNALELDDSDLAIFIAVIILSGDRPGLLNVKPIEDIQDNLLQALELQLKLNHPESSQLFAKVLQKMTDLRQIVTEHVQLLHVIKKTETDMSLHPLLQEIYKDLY
# Legend:
# PPARγ [1] = target: T1, PPARγ; assay: T cell numbers in lal−/− mice (data not shown)
# Ly6G+CD11b+ cells = assay: ROS level in Ly6G+CD11b+ cells by flow cytometry; assay type: cell-based, mouse; conditions: lal−/− Ly6G+CD11b+ cells; 20 μmol/L, 48 hours
# Description: The reactive oxygen species (ROS) level and mitochondrial membrane potential in MDSCs was measured by flow cytometry. Briefly, bone marrow cells were first treated with or without 20 μmol/L 9-HODE or ethanol for 2 days. For ROS level detection, cells were harvested, washed, and stained with 2′,7′-dichlorofluorescein diacetate (2 μmol/L, Invitrogen), allophycocyanin cy7-conjugated anti-Ly6G Ab, and phycoerythrin cy7-conjugated anti-CD 11b Ab (eBioscience) at 37° C. for 15 minutes. After PBS wash, the ROS level in Ly6G^+CD11b^+ cells was analyzed using a LSRII machine (BD Biosciences).
# PPARγ [2] = target: T1, PPARγ; conditions: previously reported; cited from earlier work
# B16 melanoma cells [3] = assay: Transwell assay, effect of MDSC-secreted cytokines on melanoma cell proliferation; assay type: cell-based, mouse; conditions: pre-treated lal−/− Ly6G+ cells in upper chamber; 72 hours
# Description: To observe the effect of MDSCs-secreted cytokines on melanoma cell proliferation, transwell assay was performed with 0.4-μm-pore 6.5-mm diameter Transwell plates (Corning) to separate MDSCs and B16 melanoma cells. One million pre-treated MDSCs in 200 μL media were seeded into the upper chamber of the plates, while 2×10^4 melanoma cells in 500 μL media were placed in the lower chamber. After 72 hours' culture, the transwells were removed, and the number of B16 melanoma cells in the lower chamber was counted.
# cytokines and chemokines = assay: Cytokines and chemokines in plasma (ELISA) and liver (qPCR) of LAP-Tg/KO mice; assay type: in vivo, mouse
# Description: Total RNAs were purified from livers or isolated hepatocytes using RNeasy Mini Kits according to the manufacturer's instruction (Qiagen). Quantitative real-time RT-PCR (qPCR) was performed as described in Wu et al., Blood 2012, 119:115-126). Relative gene expression levels were analyzed using the 2^−ΔΔCT method. Primers of mouse IL-6, mouse granulocyte-macrophage colony-stimulating factor (GM-CSF), mouse macrophage colony-stimulating factor, mouse tumor necrosis factor (TNF)-α, mouse IL-2, mouse IL-4, mouse IL-17, mouse interferon (IFN)-γ, mouse monocyte chemotactic protein-1 (MCP-1), mouse chemokine ligand (CCL)-3, mouse CCL4, mouse CCL5, mouse CXCL10, and glyceraldehyde-3-phosphate dehydrogenase for qPCR were described in Qu et al. Cancer Res 2009, 69:7252-7261; Zhao et al., Oncogene 2014, 34:1938-1948.
# The expression levels of IL-6, GM-CSF, MCP-1 (BD Bio-sciences), and CCL5 (R&D Systems, Minneapolis, Minn.) in the plasma and hepatocyte culture medium were measured using enzyme-linked immunosorbent assay (ELISA) kits according to the manufacturer's instructions.
# B16 melanoma cells [4] = assay: B16 melanoma metastasis in CCSP-Tg/KO mice; assay type: in vivo, mouse; conditions: lung epithelial-specific expression in lal−/− mice; 5×10^5 cells i.v., two weeks
# Description: For the tumor metastasis model, 5×10^5 B16 melanoma cells in 200 μL PBS were injected into the mice via tail vein. Two weeks after the injection, the mice were sacrificed and the lungs were harvested for examination of metastasis.
# B16 melanoma cells [5] = assay: B16 melanoma growth and metastasis in myeloid-specific hLAL Tg/KO triple mice; assay type: in vivo, mouse; conditions: myeloid-specific expression
# Excerpt: lal^+/+ and lal^−/− mice of the FVBN background were bred in house. c-fms-rtTA/(TetO)7-CMV-hLAL; lal^−/− (Tg/KO) triple mice of the FVBN background is a previously generated triple transgenic mouse model with myeloid-specific doxycycline-inducible expression of wild-type human LAL (hLAL) in lal^−/− mice under the control of the c-fms promoter. All scientific protocols involving the use of animals have been approved by the Institutional Animal Care and Use Committee of Indiana University School of Medicine and followed guidelines established by the Panel on Euthanasia of the American Veterinary Medical Association. Animals were housed under Institutional Animal Care and Use Committee-approved conditions in a secured animal facility at the Indiana University School of Medicine.
# Four-month-old lal^+/+ or lal^−/− mice were inoculated with 1×10^5 B16 melanoma cells subcutaneously into the flank region, and tumor size (length×width^2×π/6) was monitored every week for 3 weeks. For intravenous injection of B16 melanoma cells, 5×10^5 B16 melanoma cells in 200 μl PBS were injected into 4-month-old lal^+/+ or lal^−/− mice via tail vein. A pilot study was performed to determine the best ratio between MDSCs and B16 melanoma cells. For co-injection of MDSCs and B16 melanoma cells via tail vein, 2×10^6 MDSCs and 5×10^5 B16 melanoma cells were mixed and incubated at 37° C. and 5% CO2 for 30 minutes. […]
# [6] = doxycycline-untreated LAP-Tg/KO triple mice (hLAL on)
decreased T cell numbers in lal−/− mice (PPARγ [1]),Molecule,ROS production (Ly6G+CD11b+ cells),lal−/− pulmonary inflammation and aberrant gene expression (PPARγ [2]),number of B16 melanoma cells in lower chamber (B16 melanoma cells [3]),liver IL-4 and IL-17 mRNA levels (cytokines and chemokines; [6]),liver mRNA levels of IL-2 and IFN-γ (cytokines and chemokines; [6]),"liver mRNA levels of IL-6, GM-CSF, M-CSF and TNF-α (cytokines and chemokines; [6])","liver mRNA of chemokines MCP-1, CCL3, CCL4, CCL5 and CXCL10 (cytokines and chemokines; [6])","plasma concentrations of IL-6, GM-CSF, MCP-1 and CCL5 (ELISA) (cytokines and chemokines; untreated (hLAL on) vs doxycycline-treated LAP-Tg/KO mice)",B16 melanoma cell metastasis in the lung (B16 melanoma cells [4]),"decrease of tumor volume vs untreated mice (B16 melanoma cells [5]; doxycycline-treated Tg/KO triple mice, B16 s.c., 2 weeks post-injection) [%]","melanoma colonies in the lungs (B16 melanoma cells [5]; doxycycline-treated vs untreated Tg/KO triple mice, B16 i.v., 2 weeks)"
reversed,9-hydroxyoctadecadienoic acid [9-HODE],suppressed the increased ROS production,significantly rescued,significantly less,,,,,,,,
,"hLAL: human lysosomal acid lipase expressed from a doxycycline-controlled tissue-specific transgene in lal−/− mice; never administered as a protein (protein, left off: small tags and cut ends, human lysosomal acid lipase expressed from a doxycycline-controlled tissue-specific transgene in lal−/− mice; never administered as a protein) GPKPVVFLQHGLLADSSNWVTNLANSSLGFILADAGFDVWMGNSRGNTWSRKHKTLSVSQDEFWAFSYDEMAKYDLPASINFILNKTGQEQVYYVGHSQGTTIGFIAFSQIPELAKRIKMFFALGPVASVAFCTSPMAKLGRLPDHLIKDLFGDKEFLPQSAFLKWLGTHVCTHVILKELCGNLCFLLCGFNERNLNMSRVDVYTTHSPAGTSVQNMLHWSQAVKFQKFQAFDWGSSAKNYFHYNQSYPPTYNVKDMLVPTAVWSGGHDWLADVYDVNILLTQITNLVFHESIPEWEHLDFIWGLDAPWRLYNKIINLMRKYQ",,,,unchanged,reduced mRNA levels,significantly down-regulated,markedly down-regulated,decreased,reduced B16 melanoma cell metastasis,50,reduced number of melanoma colonies in the lungs
